# Experimental data published in publication PMC5409509.
# B1: Yeast wild-type Mlh1-Mlh3 (complex)
# chain 1: MSLRIKALDASVVNKIAAGEIIISPVNALKEMMENSIDANATMIDILVKEGGIKVLQITDNGSGINKADLPILCERFTTSKLQKFEDLSQIQTYGFRGEALASISHVARVTVTTKVKEDRCAWRVSYAEGKMLESPKPVAGKDGTTILVEDLFFNIPSRLRALRSHNDEYSKILDVVGRYAIHSKDIGFSCKKFGDSNYSLSVKPSYTVQDRIRTVFNKSVASNLITFHISKVEDLNLESVDGKVCNLNFISKKSISPIFFINNRLVTCDLLRRALNSVYSNYLPKGNRPFIYLGIVIDPAAVDVNVHPTKREVRFLSQDEIIEKIANQLHAELSAIDTSRTFKASSISTNKPESLIPFNDTIESDRNRKSLRQAQVVENSYTTANSQLRKAKRQENKLVRIDASQAKITSFLSSSQQFNFEGSSTKRQLSEPKVTNVSHSQEAEKLTLNESEQPRDANTINDNDLKDQPKKKQKLGDYKVPSIADDEKNALPISKDGYIRVPKERVNVNLTSIKKLREKVDDSIHRELTDIFANLNYVGVVDEERRLAAIQHDLKLFLIDYGSVCYELFYQIGLTDFANFGKINLQSTNVSDDIVLYNLLSEFDELNDDASKEKIISKIWDMSSMLNEYYSIELVNDGLDNDLKSVKLKSLPLLLKGYIPSLVKLPFFIYRLGKEVDWEDEQECLDGILREIALLYIPDMVPKVDTSDASLSEDEKAQFINRKEHISSLLEHVLFPCIKRRFLAPRHILKDVVEIANLPDLYKVFERC
# chain 2: MSQHIRKLDSDVSERLKSQACTVSLASAVREIVQNSVDAHATTIDVMIDLPNLSFAVYDDGIGLTRSDLNILATQNYTSKIRKMNDLVTMKTYGYRGDALYSISNVSNLFVCSKKKDYNSAWMRKFPSKSVMLSENTILPIDPFWKICPWSRTKSGTVVIVEDMLYNLPVRRRILKEEPPFKTFNTIKADMLQILVMHPMISLNVQYTDKLRINTEVLFRSKNITEGLTKHQQMSQVLRNVFGAIIPPDMLKKVSLKFNEYQIEGIISKMPVGLKDLQFIYINGRRYADSAFQGYVDSLFQAQDFGEKGMSLLKTKSVGKPYRSHPVFILDVRCPQTIDDLLQDPAKKIVKPSHIRTIEPLIVKTIRSFLTFQGYLTPDKSDSSFEIVNCSQKTATLPDSRIQISKRNQVLNSKMKIARINSYIGKPAVNGCRINNSTINYEKIKNIRIDGQKSRLRNKLSSRPYDSGFTEDYDSIGKTITDFSISRSVLAKYEVINQVDKKFILIRCLDQSIHNCPLLVLVDQHACDERIRLEELFYSLLTEVVTGTFVARDLKDCCIEVDRTEADLFKHYQSEFKKWGIGYETIEGTMETSLLEIKTLPEMLTSKYNGDKDYLKMVLLQHAHDLKDFKKLPMDLSHFENYTSVDKLYWWKYSSCVPTVFHEILNSKACRSAVMFGDELTRQECIILISKLSRCHNPFECAHGRPSMVPIAELK
# Biological target: Yeast wild-type Mlh1-Mlh3 (yeast (S. cerevisiae)) (UniProt P38920)
binder,measurement,value
B1,endonuclease activity on circular dsDNA: ratio of Mlh1-Mlh3 to 2.7 kb plasmid at the optimum of activity (Mlh1-Mlh3 per 2.7 kb plasmid),100
